# Test results: US7071299B2, “Peptide and polypeptide inhibitors of complement C1s” (ZymoGenetics, Inc., priority 2000, dated 2006)
# Several values for one entry are separate records, joined by “and”; a condition that tells them apart may be missing. Equal values may be shown once.
# B1: BD001 isolated from tissue: native leech protein BD001 (SEQ ID NO:1) isolated from the salivary complexes of the leech; inhibits C1s (protein, listed as Haementaria ghilianii)
# chain: AKKKLPKCQKQEDCGSWDLKCNNVTKKCECRNQVCGRGCPKERYQRDKYGCRKCLCKGCDGFKCRLGCTYGFKTDKKGCEAFCTCNTKETACVNIWCTDPYKCNPESGRCEDPNEEYEYDYE
# modifications: native, isolated from leech
# Molecular target: T1, Activated human C1s (Homo sapiens, UniProt P09871)
# T1 construct: purchased Calbiochem-Novabiochem Corporation; San Diego, Calif
# T1 sequence (P09871 16-437 limits assumed): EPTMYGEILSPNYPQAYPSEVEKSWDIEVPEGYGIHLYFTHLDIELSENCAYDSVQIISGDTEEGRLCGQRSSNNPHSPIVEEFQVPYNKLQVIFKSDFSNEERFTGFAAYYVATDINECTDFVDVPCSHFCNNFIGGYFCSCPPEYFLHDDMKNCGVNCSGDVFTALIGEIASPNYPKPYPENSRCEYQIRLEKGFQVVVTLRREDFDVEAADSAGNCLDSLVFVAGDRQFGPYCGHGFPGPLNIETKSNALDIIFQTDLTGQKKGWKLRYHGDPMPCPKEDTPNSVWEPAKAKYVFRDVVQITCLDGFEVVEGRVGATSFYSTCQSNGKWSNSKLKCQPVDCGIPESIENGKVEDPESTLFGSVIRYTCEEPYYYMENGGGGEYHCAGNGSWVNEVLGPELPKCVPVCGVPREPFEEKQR
# T1 sequence (P09871 438-688 limits assumed): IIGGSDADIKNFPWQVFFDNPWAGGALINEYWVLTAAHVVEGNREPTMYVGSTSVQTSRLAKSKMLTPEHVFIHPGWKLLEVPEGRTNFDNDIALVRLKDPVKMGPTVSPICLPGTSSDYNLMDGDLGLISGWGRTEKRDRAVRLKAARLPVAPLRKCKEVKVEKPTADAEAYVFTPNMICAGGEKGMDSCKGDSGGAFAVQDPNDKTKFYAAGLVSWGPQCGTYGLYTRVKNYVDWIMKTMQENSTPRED
# Experiment: C1s enzyme assay (chromogenic substrate Pefa-C1E, decrease in Vmax)
# Assay type: biochemical
# Conditions: Table 6, effect of posttranslational modifications on BD001 activity
# Protocol: C1s enzyme assays were performed in 96 well plates preincubated in the assay buffer for 30 minutes at room temperature. Activated human C1s (Calbiochem-Novabiochem Corporation; San Diego, Calif.); final assay concentration: 1.25 μg/ml), was incubated with samples in 50 mM Tris-HCl (pH 8) that contained 116 mM sodium chloride and 0.05% Polysorbate 80. The chromogenic substrate, Pefa-C1E (Centerchem, Inc.; Stamford, Conn.; final assay concentration: 0.4 mM), was added to the assay wells and the plate was read at 405 nm, 37° C., for 30 minutes at 20 second intervals on a SPECTRAmax PLUS plate reader (Molecular Devices Corporation; Sunnyvale, Calif.). Inhibition was determined as a decrease in Vmax, which is calculated as the maximum Δ milli-absorbance units/min over the assay period.
# Three types of post-translational modifications have been identified in BD001: (1) glycosylation at Asn^23 consisting of a fucosylated complex-type core; (2) sulfation of at least one of Tyr^117, Tyr^119, and Tyr^121; and (3) proteolytic cleavage after Arg^65. The first two modifications have been identified in native BD001 as well as recombinant BD001 expressed in Baculovirus. The third modification is seen in a fraction of the recombinant BD001 expressed in Baculovirus. […] The identity of each species was verified using mass spectroscopy, and protein concentrations were measured using absorbance at 280 nm. […]
molecule,measurement,value
B1,IC50,4 nM and 4.7 nM
